In patent US20250076311A1 (Chugai, published 2025):

T1: cynomolgus monkey FcγRIIIaS extracellular domain with C-terminal His-tag (cynomolgus monkey, UniProt Q8SPW2 21-206 at identity 1.00))
T1 construct: also called cyno FcgRIIIaS; cynoFcγRIIIaS
T1 chain: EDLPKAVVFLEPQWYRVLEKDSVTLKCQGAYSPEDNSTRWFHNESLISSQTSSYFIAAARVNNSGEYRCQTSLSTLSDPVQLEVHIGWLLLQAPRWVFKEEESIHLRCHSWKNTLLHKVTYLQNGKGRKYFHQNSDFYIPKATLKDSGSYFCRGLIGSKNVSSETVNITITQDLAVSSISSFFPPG

T2: cynomolgus monkey FcγRIIb extracellular domain with C-terminal His-tag (cynomolgus monkey)
T2 construct: also called cyno FcgRIIb; cynoFcγRIIb; not shown: His-tag added to C-terminus
T2 chain: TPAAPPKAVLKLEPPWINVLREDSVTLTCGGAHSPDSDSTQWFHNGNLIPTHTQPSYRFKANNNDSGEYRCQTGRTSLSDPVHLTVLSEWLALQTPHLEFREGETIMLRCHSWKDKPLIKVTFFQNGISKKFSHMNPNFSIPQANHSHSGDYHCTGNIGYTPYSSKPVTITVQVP

T3: human FcγRIIaR extracellular domain with C-terminal His-tag (human, UniProt P12318 34-217)
T3 construct: also called human FcgRIIaR; FcγRIIa type R; not shown: His-tag added to the C-terminus
T3 chain: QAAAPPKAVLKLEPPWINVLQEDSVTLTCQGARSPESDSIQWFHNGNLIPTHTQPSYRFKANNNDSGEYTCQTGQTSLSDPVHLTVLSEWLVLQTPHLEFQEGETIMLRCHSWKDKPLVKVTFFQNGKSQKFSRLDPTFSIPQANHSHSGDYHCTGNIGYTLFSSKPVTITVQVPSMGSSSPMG

T4: cynomolgus monkey FcγRIIa3 extracellular domain with C-terminal His-tag (cynomolgus monkey)
T4 construct: also called cyno FcgRIIa3; cynoFcγRIIa3; not shown: His-tag added to the C-terminus
T4 chain: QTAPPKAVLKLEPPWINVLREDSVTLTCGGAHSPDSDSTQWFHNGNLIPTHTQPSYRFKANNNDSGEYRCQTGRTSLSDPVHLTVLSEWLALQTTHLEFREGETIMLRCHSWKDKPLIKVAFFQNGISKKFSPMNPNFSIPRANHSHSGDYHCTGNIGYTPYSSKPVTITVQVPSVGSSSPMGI


Experiments:
[1] = target: T5, cynomolgus monkey FcγRIIIaS extracellular domain with C-terminal His-tag (cynomolgus monkey, UniProt A3RFZ7 21-206 (rhesus entry)); experiment: SPR (BIACORE), antibody captured, FcgR analyte
T5 construct: also called cyno FcgRIIIaS; cynoFcγRIIIaS; not shown: His-tag added to the C-terminus
Protocol: (§1) The kinetic analysis of interactions between these antibodies and FcγR was carried out using BIACORE® T200 or BIACORE® 4000 (GE Healthcare). HBS-EP+ (GE Healthcare) was used as the running buffer, and the measurement temperature was set to 25° C. […] After the measurement, the antibody captured on the chip was washed off by allowing reaction with 10 mM glycine-HCl, pH1.5 and 25 mM NaOH so that the chip was regenerated and used repeatedly. The sensorgrams obtained as measurement results were analyzed by the 1:1 Langmuir binding model using the BIACORE® Evaluation Software to calculate the binding rate constant ka (L/mol/s) and dissociation rate constant kd (1/s), and the dissociation constant KD (mol/L) was calculated from these values. […] Regarding such interactions, KD values were calculated using the following 1:1 binding model described in BIACORE® T100 Software Handbook BR1006-48 Edition AE.

[2] = target: T5, cynomolgus monkey FcγRIIIaS …; experiment: SPR (BIACORE); KD of SG1 / KD of variant
Protocol: as §1

[3] = target: T1, cynomolgus monkey FcγRIIIaS …; experiment: SPR, KD(parent SG1)/KD(variant)
[4] = target: T2, cynomolgus monkey FcγRIIb extracellular …; experiment: SPR Biacore, antibody captured, FcgR analyte
[5] = target: T6, cynomolgus monkey FcγRIIIaS extracellular domain with C-terminal His-tag (cynomolgus monkey, UniProt A3RFZ7 21-206 (rhesus entry)); experiment: SPR Biacore, antibody captured, FcgR analyte
T6 construct: also called cyno FcgRIIIaS; cynoFcγRIIIaS; not shown: His-tag added to C-terminus

[6] = target: T3, human FcγRIIaR extracellular domain …; experiment: SPR (BIACORE), antibody captured, FcgR analyte
Protocol: as §1

[7] = target: T4, cynomolgus monkey FcγRIIa3 …; experiment: SPR (BIACORE), antibody captured, FcgR analyte
Protocol: as §1

Row | Kd [1] | KD fold (SG1 = 1) [3] | Kd [6] | Binder | other results
1 | – | 0.09 fold | – | MS1032LO19-SG1077 (antibody, name in EU numbering, tied to rows r16/r34 by row order only; also called MS103240H795-SG1077) heavy: QVQLVESGGGLVQPGGSLRLSCAVSGIDLSHDDISWVRQAPGKGLEWVSIISYAGSTYYASWAKGRLTISKDTSKNQVVLTMTNMDPVDTATYYCARGVPAYSHGGDLWGQGTLVTVSSASTKGPSVFPLAPSSKSTSGGTAALGCLVKDYFPEPVTVSWNSGALTSGVHTFPAVLQSSGLYSLSSVVTVPSSSLGTQTYICNVNHKPSNTKVDKKVEPKSCDKTHTCPPCPAPELWNGPSVFLFPPKPKDTLMISRTPEVTCVVVDVSDEDPEVKFNWYVDGVEVHNAKTKPREELYNSTYRVVSVLTVLHRDWLNGKEYKCKVSNTALPKPIEKTISKAKGQRREPQVYTLPPSREEMTKNQVSLTCLVKGFYPSDIAVEWESNGQPENNYKTTPPVLDSDGSFFLYSKLTVDKSRWQQGNVFSCSVLHEALHAHTTRKELSLSP light: DIVMTQSPATLSLSPGERATLSCTTSQSVYHENWLSWFQQKPGQPPKLLIYWASTLAYGVPSRFSGSGSGTDFTLTISSLQPEDAATYYCAGGYGGGRYAFGQGTKVEIKRTVAAPSVFIFPPSDEQLKSGTASVVCLLNNFYPREAKVQWKVDNALQSGNSQESVTEQDSKDSTYSLSSTLTLSKADYEKHKVYACEVTHQGLSSPVTKSFNRGEC | –
2 | – | 0.09 fold | – | MS1032LO19-SG1081 (antibody, name in EU numbering, tied to rows r19/r37 by row order only; also called MS103240H795-SG1081) heavy: QVQLVESGGGLVQPGGSLRLSCAVSGIDLSHDDISWVRQAPGKGLEWVSIISYAGSTYYASWAKGRLTISKDTSKNQVVLTMTNMDPVDTATYYCARGVPAYSHGGDLWGQGTLVTVSSASTKGPSVFPLAPSSKSTSGGTAALGCLVKDYFPEPVTVSWNSGALTSGVHTFPAVLQSSGLYSLSSVVTVPSSSLGTQTYICNVNHKPSNTKVDKKVEPKSCDKTHTCPPCPAPELWNGPSVFLFPPKPKDTLMISRTPEVTCVVVDVSDEDPEVKFNWYVDGVEVHNAKTKPREELYNSTYRVVSVLTVLHRDWLNGKEYKCKVSNTALPKPIEKTISKAKGQRREPQVYTLPPSREEMTKNQVSLTCLVKGFYPSDIAVEWESNGQPENNYKTTPPVLDSDGSFFLYSKLTVDKSRWQQGNVFSCSVMHEALHAHYTRKELSLSP light: DIVMTQSPATLSLSPGERATLSCTTSQSVYHENWLSWFQQKPGQPPKLLIYWASTLAYGVPSRFSGSGSGTDFTLTISSLQPEDAATYYCAGGYGGGRYAFGQGTKVEIKRTVAAPSVFIFPPSDEQLKSGTASVVCLLNNFYPREAKVQWKVDNALQSGNSQESVTEQDSKDSTYSLSSTLTLSKADYEKHKVYACEVTHQGLSSPVTKSFNRGEC | –
3 | 9.3 µM | – | 1.1 µM | M103205H795-MY440/M103202L889-SK1 (antibody, human IgG1, kappa, name in EU numbering, Fc variant of MS1032LO06-SG1; positions in EU numbering) heavy: QVTLKESGPVLVKPTETLTLTCTVSGIDLSHDDISWVRQAPGKGLEWVGIISYAGSTYYASWAKGRLTISKDTSKNQVVLTMTNMDPVDTATYYCARGVPAYSHGGDLWGQGTLVTVSSASTKGPSVFPLAPSSKSTSGGTAALGCLVKDYFPEPVTVSWNSGALTSGVHTFPAVLQSSGLYSLSSVVTVPSSSLGTQTYICNVNHKPSNTKVDKKVEPKSCDKTHTCPPCPAPELWNGPSVFLFPPKPKDTLMISRTPEVTCVVVDVSDEDPEVKFNWYVDGVEVHNAKTKPREELYNSTYRVVSVLTVLHQDWLNGKEYKCKVSNKALPKPIEKTISKAKGQPREPQVYTLPPSREEMTKNQVSLTCLVKGFYPSDIAVEWESNGQPENNYKTTPPVLDSDGSFFLYSKLTVDKSRWQQGNVFSCSVMHEALHNHYTQKSLSLSP light: DIVMTQSPATLSLSPGERATLSCTSSQSVYHANWLSWFQQKPGQPPKLLIYWASTLAYGVPSRFSGSGSGTDFTLTISSLQPEDAATYYCAGGYGGGRYAFGQGTKVEIKRTVAAPSVFIFPPSDEQLKSGTASVVCLLNNFYPREAKVQWKVDNALQSGNSQESVTEQDSKDSTYSLSSTLTLSKADYEKHKVYACEVTHQGLSSPVTKSFNRGEC | Kd [7]: 4.8 µM

Further lines, the binder ahead of its results:

Row | Binder | Kd [1] | KD fold (SG1 = 1) [3] | Kd [6] | other results
4 | M103205H795-MY001/M103202L889-SK1 (antibody, human IgG1, kappa, name in EU numbering, Fc variant of MS1032LO06-SG1; positions in EU numbering) heavy: not shown light: DIVMTQSPATLSLSPGERATLSCTSSQSVYHANWLSWFQQKPGQPPKLLIYWASTLAYGVPSRFSGSGSGTDFTLTISSLQPEDAATYYCAGGYGGGRYAFGQGTKVEIKRTVAAPSVFIFPPSDEQLKSGTASVVCLLNNFYPREAKVQWKVDNALQSGNSQESVTEQDSKDSTYSLSSTLTLSKADYEKHKVYACEVTHQGLSSPVTKSFNRGEC | 32 µM | – | – | KD fold (SG1 = 1) [2]: 0.05 fold
5 | MS1032LO19-SG1 (antibody, human IgG1, kappa, tied to rows r13/r31 by row order only; also called MS103240H795-SG1; copies: 2 + 2) heavy: not shown light: DIVMTQSPATLSLSPGERATLSCTTSQSVYHENWLSWFQQKPGQPPKLLIYWASTLAYGVPSRFSGSGSGTDFTLTISSLQPEDAATYYCAGGYGGGRYAFGQGTKVEIKRTVAAPSVFIFPPSDEQLKSGTASVVCLLNNFYPREAKVQWKVDNALQSGNSQESVTEQDSKDSTYSLSSTLTLSKADYEKHKVYACEVTHQGLSSPVTKSFNRGEC | – | 1 fold | – | –
6 | M103205H795-MY350/M103202L889-SK1 (antibody, human IgG1, kappa, name in EU numbering, substitutions in EU numbering, introduced into M103205H795-SG1) heavy: QVTLKESGPVLVKPTETLTLTCTVSGIDLSHDDISWVRQAPGKGLEWVGIISYAGSTYYASWAKGRLTISKDTSKNQVVLTMTNMDPVDTATYYCARGVPAYSHGGDLWGQGTLVTVSSASTKGPSVFPLAPSSKSTSGGTAALGCLVKDYFPEPVTVSWNSGALTSGVHTFPAVLQSSGLYSLSSVVTVPSSSLGTQTYICNVNHKPSNTKVDKKVEPKSCDKTHTCPPCPAPELWNGPSVFLFPPKPKDTLMISRTPEVTCVVVDVSEEDPEVKFNWYVDGVEVHNAKTKPREEQYNSTYRVVSVLTVLHQDWLNGKEYKCKVSNKALPKPIEKTISKAKGQPREPQVYTLPPSREEMTKNQVSLTCLVKGFYPSDIAVEWESNGQPENNYKTTPMVLDSDGSFFLYSKLTVDKSRWQQGNVFSCSVMHEALHNHYTQKSLSLSP light: DIVMTQSPATLSLSPGERATLSCTSSQSVYHANWLSWFQQKPGQPPKLLIYWASTLAYGVPSRFSGSGSGTDFTLTISSLQPEDAATYYCAGGYGGGRYAFGQGTKVEIKRTVAAPSVFIFPPSDEQLKSGTASVVCLLNNFYPREAKVQWKVDNALQSGNSQESVTEQDSKDSTYSLSSTLTLSKADYEKHKVYACEVTHQGLSSPVTKSFNRGEC | – | – | – | KD fold (SG1 = 1) [4]: 3.2 fold; KD fold (SG1 = 1) [5]: 0.05 fold
7 | M103205H795-MY200/M103202L889-SK1 (antibody, Fc variant of MS1032LO06-SG1; EU numbering; printed S2369V is probably S239V) heavy: QVTLKESGPVLVKPTETLTLTCTVSGIDLSHDDISWVRQAPGKGLEWVGIISYAGSTYYASWAKGRLTISKDTSKNQVVLTMTNMDPVDTATYYCARGVPAYSHGGDLWGQGTLVTVSSASTKGPSVFPLAPSSKSTSGGTAALGCLVKDYFPEPVTVSWNSGALTSGVHTFPAVLQSSGLYSLSSVVTVPSSSLGTQTYICNVNHKPSNTKVDKKVEPKSCDKTHTCPPCPAPELLNGPVVFLFPPKPKDTLMISRTPEVTCVVVDVSEEDPEVKFNWYVDGVEVHNAKTKPREEQYNSTYRVVSVLTVLHQDWLNGKEYKCKVSNKALPKPIEKTISKAKGQPREPQVYTLPPSREEMTKNQVSLTCLVKGFYPSDIAVEWESNGQPENNYKTTPPVLDSDGSFFLYSKLTVDKSRWQQGNVFSCSVMHEALHNHYTQKSLSLSP light: DIVMTQSPATLSLSPGERATLSCTSSQSVYHANWLSWFQQKPGQPPKLLIYWASTLAYGVPSRFSGSGSGTDFTLTISSLQPEDAATYYCAGGYGGGRYAFGQGTKVEIKRTVAAPSVFIFPPSDEQLKSGTASVVCLLNNFYPREAKVQWKVDNALQSGNSQESVTEQDSKDSTYSLSSTLTLSKADYEKHKVYACEVTHQGLSSPVTKSFNRGEC | 4.4 µM | – | 2.7 µM | –
8 | M103205H795-MY049/M103202L889-SK1 (antibody, human IgG1, kappa, name in EU numbering, Fc variant of MS1032LO06-SG1; positions in EU numbering) heavy: not shown light: DIVMTQSPATLSLSPGERATLSCTSSQSVYHANWLSWFQQKPGQPPKLLIYWASTLAYGVPSRFSGSGSGTDFTLTISSLQPEDAATYYCAGGYGGGRYAFGQGTKVEIKRTVAAPSVFIFPPSDEQLKSGTASVVCLLNNFYPREAKVQWKVDNALQSGNSQESVTEQDSKDSTYSLSSTLTLSKADYEKHKVYACEVTHQGLSSPVTKSFNRGEC | 4.5 µM | – | 7.8 µM | KD fold (SG1 = 1) [2]: 0.08 fold
